Test system: MS2 coat protein
Experiment: apparent KD of MS2 coat protein; designed switch direction (-1 OFF switch, 1 ON switch): -1; higher = weaker reporter binding
Procedure, shortened: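 Normalised cluster fluorescence was curve-fitted, and each design's median over clusters is its apparent KD. Before this, SNAP-549-labelled MS2 coat protein was titrated from 0.7 or 1.5 nM, doubling to 3 µM, over RNA switches transcribed on Illumina chips by stalled E. coli RNA polymerase. Titrations had no input, 200 uM small-molecule ligand, or an oligonucleotide input, and steps lasted 0.8–1.5 h (lowest) to 10–20 min (highest).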

[1] = input ligand: microRNA oligo, concentration not stated
[2] = Eterna round: R95, input ligand: FMN 200 uM
[3] = Eterna round: R95, input ligand: microRNA oligo, concentration not stated
[4] = Eterna round: R95, input ligand: none

| Sequence | apparent KD of MS2 coat protein (input ligand: FMN 200 uM) [nM] | apparent KD of MS2 coat protein [1] [nM] | apparent KD of MS2 coat protein (input ligand: none) [nM] | apparent KD of MS2 coat protein [2] [nM] | apparent KD of MS2 coat protein [3] [nM] | apparent KD of MS2 coat protein [4] [nM] |
| --- | --- | --- | --- | --- | --- | --- |
| GGAAAUCAUGUAGGAUAUGCGUGGCGAAGCUAUGCAGAAGGACAUGAGGAUCACCCAUGUGCUUCCGUCUGCGUACAGACGGAA [Mat - Exclusion NG 1 - Mod of JL - D20] (Eterna round: R96, puzzle: Exclusion NG 1) | 32.3 | 77.9 | 186 | – | – | – |
| GGAAAUCAUGUAGGAUAUGCGUGGCGAAGCUAUGCAGAAGGACAUGAGGAUCACCCAUGUGCUUCCGUCUGCGUACAGACGGUA [Mat - Exclusion NG 1 - Mod of JL - D19] (Eterna round: R96, puzzle: Exclusion NG 1) | 80.2 | 78.5 | 143 | – | – | – |
| GGAAGAAUGAGUAGUCCUCAUUGAAGAGAACAGUAAGAAACAUGAGGAUCACCCAUGUAAGAACAAGCUUUUGCUCA [JR_Sv3TOV2_Sub002] (puzzle: Sensor v3, turn-off variant 2) | – | – | – | 168 | 699 | 259 |
| GGAAGGUCAGGAUAUGCGAGGGAGUGGGAAAUAGGAUGGUAGCAGAAGGGACAUGAGGAUCACCCAUGUUAGGA [JR_Exclu4_Sub0101] (puzzle: Exclusion 4) | – | – | – | – | 28 | – |
| GGAAGUAGAAACCGAUCCUACAUGAGGAUCACCCAUGUAGCAAGACGUGCACGCGAAGCUCGUCAGACUACCAGAAA [salish99_TOv1_r3_009] (puzzle: Sensor v3, turn-off variant 1) | – | – | – | 301 | 286 | 293 |
| GGAAUACAUGAGGAUCACCCAUGUAAGGAUAUGCUGAAUAACACGGAAUUAACGUGCAGCAGAAGGUACAAAGG [Mat - Mod of my Eli Mod D43] (puzzle: Exclusion 1) | – | – | – | 62.8 | 63.3 | 113 |
| GGAAUACCCUCGAGUUAUCACAUGAGGAUCACCCAUGUCCCAAGCCUUUUGCUCUGAGCUGCGUAUACGCAGAUGUA [Eternabot (Original) Solution 23] (Eterna round: R97, puzzle: Sensor, turn-off variant 1) | 112 | – | 128 | – | – | – |
| GGACCAUAUCAGGAUAUGACUAGCCUCGGCUAGUCAGAAGGGAUGACAUGAGGAUCACCCAUGUGAUCAGGUCC [E6/1-C2] (Eterna round: R97, puzzle: Exclusion 6) | 59.5 | – | 36.7 | – | – | – |
| GGACGGUUAGUUAGGAUAUGCUCUACCUCGGUAGAGCAGAAGGGACAUGAGGAUCACCCAUGUGAUAACUGUUC [Omei Ex4B B35] (Eterna round: R97, puzzle: Brourd's mod of Exclusion 4) | 23.1 | – | 20.5 | – | – | – |
| GGAGAGGUAGGAUAUCCACUUUAGAACAUGAGGAUCACCCAUGUAGAACCACAUGAAAUGGGAGAAGGACCAGGGA [AK-MS2ROC-r4-exclusion5-3] (Eterna round: R97, puzzle: Exclusion 5) | 65.3 | – | 56.1 | – | – | – |
| GGAGAGGUAGGAUAUGGAGGUUAAAACAUGAGGAUCACCCAUGUUAAACCUCAUGACCGACUAGAAGGACCAGUCC [AK-MS2ROC-r4-exclusion5-8] (Eterna round: R97, puzzle: Exclusion 5) | 15 | – | 11.1 | – | – | – |
| GGAGGAAGAGAGGAUAUGCACUCAAGGAGAAAAGCAGAAGGUUCAACAUGAGGAUCACCCAUGUAUGAUCCUCA [AK-MS2ROC-r4-exclusion6-3] (Eterna round: R97, puzzle: Exclusion 6) | 247 | – | 197 | – | – | – |
| GGAGGACGAGCAGGAUAUUUUUACAUGAGGAUCACCCAUGUGUAAUCAGGGUAAUCCUCCACCGAAAAGAAGGGUUCGGAAGAA [Mat - Exclusion NG 2 - Mod of JL - D84] (Eterna round: R96, puzzle: Exclusion NG 2) | 18.1 | 9.17 | 70.6 | – | – | – |
| GGAGGAGAGGUAAGGAUAUGGUGGUGGAAACACCACCAGAAGGUACAUGAGGAUCACCCAUGUAAGGAAGGAGG [AK-MS2ROC-r4-Bmoexclusion4-17.1] (Eterna round: R97, puzzle: Brourd's mod of Exclusion 4) | 26.7 | – | 26.6 | – | – | – |
| GGAUAAAACUGAGGAUAUGCGUAUCGCUAGCGAGCAGAAGGCAGACAUGAGGAUCACCCAUGUGAGUUCUCGAUAAGAAACACG [Prohibition 59 - Jieux - Exclusion NG 1] (Eterna round: R96, puzzle: Exclusion NG 1) | 145 | 54.8 | 57.7 | – | – | – |
| GGAUAUAACGUAGGAUAUCUGAGAAACAGACGAAGAGAAGGACGACAUGAGGAUCACCCAUGUGAUCUAUCAAUAUUAUACAUG [Prohibition 99 - Jieux - Exclusion NG 1] (Eterna round: R96, puzzle: Exclusion NG 1) | 412 | 330 | 351 | – | – | – |

| Sequence | apparent KD of MS2 coat protein (input ligand: FMN 200 uM) [nM] | apparent KD of MS2 coat protein [1] [nM] | apparent KD of MS2 coat protein (input ligand: none) [nM] | apparent KD of MS2 coat protein [2] [nM] | apparent KD of MS2 coat protein [3] [nM] | apparent KD of MS2 coat protein [4] [nM] |
| --- | --- | --- | --- | --- | --- | --- |
| GGAUCACAUGUGAGGAUAUGCUGGUCCUUGGAUCAGCAGAAGGCACAUGAGGAUCACCCAUGUGAUCAAGAUCC [Eli bmx4 4.78] (Eterna round: R97, puzzle: Brourd's mod of Exclusion 4) | 22.2 | – | 37.1 | – | – | – |
| GGAUCAUGAGGAUAUCGAGGUUAGUACAUGAGGAUCACCCAUGUUAUCCAGGUCUCGUUUCGAGAAGGCAUGAUCC [LRO-Ex5-10] (puzzle: Exclusion 5) | – | – | – | – | 21.2 | – |
| GGAUCGAGUGUGAGGAUAUGCUGGUCCUUGGAUCAGCAGAAGGCACAUGAGGAUCACCCAUGUGAUCAAGAUCC [Eli bmx4 4.76] (Eterna round: R97, puzzle: Brourd's mod of Exclusion 4) | 50.9 | – | 712 | – | – | – |
| GGAUGAGGAGUGAGGAUAUCGUGUUCGAAAGAACGUGAGAAGGCACAUGAGGAUCACCCAUGUGAUCCUCAUCG [Omei Ex4B A22] (Eterna round: R97, puzzle: Brourd's mod of Exclusion 4) | 365 | – | 59.6 | – | – | – |
| GGAUUUUCUGAGGAUAUUGCAUCACCCGAUUUAUAAGAAGGCAGAACAUGAGGAUCACCCAUGUGGGUCUCUAG [Bingo-Bango-26] (Eterna round: R97, puzzle: Exclusion 6) | 30.6 | – | 24.5 | – | – | – |
| GGCACACAUGAGGAUCACCCAUGUGAGGAUAUGGUGCGAUCGUCGAUAGACGAUAGCACUAGAAGGCACAUGCC [Mat - Exclusion 1 - Eli Mod - D6] (Eterna round: R97, puzzle: Exclusion 1) | 25.5 | – | 17.8 | – | – | – |
| GGCACACAUGAGGAUCACCCAUGUGAGGAUAUGUGGCGAUCGUCGAAAGACGAUAGCCACAGAAGGCACAGGCC [Eli x1 4.24] (Eterna round: R97, puzzle: Exclusion 1) | 21.4 | – | 17.8 | – | – | – |
| GGCAUCAUCUGGUCCUGAUACAUGAGGAUCACCCAUGUUCUACUGUAGGUCGUAAGCAGCUUACCCUCUUAGGCACA [JR_Sensorv2_tov_Sub1249] (Eterna round: R96, puzzle: Sensor v2, turn-off variant) | 380 | 227 | 308 | – | – | – |
| GGCAUGCAAGGAUAUACUUGCAGUGAUGUUCGAUAAAUUCUACUUGAGGAUCACCCAAGUAGAAGGUGCAUGCC [Exclusion 2 (Mod4 JL EX2 4.74 Vienna UCT mod of Mamaed)] (Eterna round: R97, puzzle: Exclusion 2) | 15.2 | – | 27.3 | – | – | – |
| GGCAUGUAAGGAUAUGCCACGCAGGCCUUUGGCCUGCGUAAGCAGAAGGUACAUGAGGAUCACCCAUGUGAUAA [jl-ex4-4.57 ViennaUCT mod] (Eterna round: R97, puzzle: Exclusion 4) | 129 | – | 727 | – | – | – |
| GGCAUGUAAGGAUAUGUGAAGGGAAGGAGAGGGAGAGGGAAGCAGAAGGUACAUGAGGAUCACCCAUGUAAGGG [AK-MS2ROC-r4-exclusion4-5.1] (Eterna round: R97, puzzle: Exclusion 4) | 203 | – | 108 | – | – | – |
| GGCCCAUGAGGAUAUCAGUCUGGAUCAGACAAGAUCCUGACUGAGAAGGCACAUGAGGAUCACCCAUGUAGGCC [Mat - Exclusion 4 - Eli Mod - D53] (Eterna round: R97, puzzle: Exclusion 4) | 18.3 | – | 18.7 | – | – | – |
| GGCCCUAAGGUCAGAUCCACAAGCUUUUUGCUCGUUUUAACAUGAGGAUCACCCAUGUCUAGUGGAUCUGAUCCUCA [Sensor v3, turn-off variant 2 (MOD of Indiso v.3)] (puzzle: Sensor v3, turn-off variant 2) | – | – | – | 16.9 | 12.1 | 20.8 |
| GGCCCUAAGGUCAGAUUCACAAGCUUUUUGCUCGUUUUAACAUGAGGAUCACCCAUGUCUAGUGGAUUUGAUCCUUU [Sensor v3, turn-off variant 2 (MOD of Indiso v.6)] (puzzle: Sensor v3, turn-off variant 2) | – | – | – | 28.6 | 25.4 | 34.2 |
| GGCCUGUGAGGAUAUUAGUAGUAGAUAAAAUAAACUAUUACUGAGAAGGCACAUGAGGAUCACCCAUGUUGGCC [Eli x4 4.05] (Eterna round: R97, puzzle: Exclusion 4) | 20.3 | – | 16.4 | – | – | – |
| GGCUAGUGAGGAUAUACGUGCACUCCUCAGUCGCCAGUCGGACAUGAGGAUCACCCAUGUAGAAGGUAUCGGCA [Qusoceus] (puzzle: Exclusion 2) | – | – | – | – | 24 | – |

— the supplement of paper PMC9170038
